The values that follow come from patent publication US20220347267A1, “METHODS TO IMPROVE PATIENT RESPONSE TO IMMUNE CHECKPOINT INHIBITORS AND FUNCTIONAL TESTS TO PREDICT RESPONSE” (Biomarker Strategies, LLC, priority 2019, published 2022).

The test concerns H1650 cells. Nature of the test: PD-L1 immunocytochemistry (ICC), IFNγ modulation. The class given is cell-based. The note with it: H1650 (NSCLC); 10 ng/mL human IFNγ, 24h; anti-PD-L1 clone E1L3N. Here is the method: The human NSCLC cell line SKMES1 was grown in Eagle's Minimum Essential Medium (EMEM; ATCC #30-2003) with 10% Fetal Bovine Serum (FBS) and 1% Penicillin and Streptomycin (P/S). The human NSCLC H460, H1299 and H292 and melanoma cell lines MeWo, HMVII, A375 and CHL1 were grown in RPMI1640 medium with 10% FBS and 1% P/S and 1% sodium pyruvate. Cultured cells were harvested using Accutase, and the cell count and viability were determined using trypan blue dye exclusion. Other methods to collect cells, including scraping or other release can be used.
Between 15,000 to 20,000 cells were put into each chamber of 8-chambered ICC slides in 200 uL medium with or without 10 ng/mL human IFNγ. […] IFNγ can be readily replaced by other modulators discussed within. […] Cell lines can be readily switched for other sources of cells, including those isolated from xenografts or clinical samples and can be processed manually or using automated methods (e.g. on SnapPath).
Cells on the chambered slides were stained entirely at RT using the BioGenex RTU Detection System kit components (QD400) unless otherwise indicated. Other detection reagents and methods (e.g. multiplex immunocytochemistry, single of multiplex immunofluorescence, confocal, etc.), including automated staining methods, can be used readily. […] Ki67, T-EGFR or vimentin are provided as examples of positive controls, but others can be readily used. […]

B1: IFNγ: human IFNγ, modulator (10 ng/ml; Sigma Aldrich) (protein, UniProt P01579 24-161, looked up)
Interferon gamma: QDPYVKEAENLKKYFNAGHSDVADNGTLFLGILKNWKEESDRKIMQSQIVSFYFKLFKNFKDDQSIQKSVETIKEDMNVKFFNSNKKKRDDFEKLTNYSVTDLNVQRKAIHELIQVMAELSPAAKTGKRKRSQMLFRG
B1: the “Immunocytochemical Score, PD-L1, IFNγ-Treated Cells” value was “Negative”.
